Test results reported in the nanobody polyreactivity screen of Harvey et al. (2022).

Experiment: yeast display, Sf9 membrane polyspecificity reagent, FACS + sequencing; frameworks hold sequencing errors
Outline: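 Polyreactivity labels are assigned by the sorting gate from which each nanobody was recovered. The gates were low and high (top ~1%), set on anti-HA fluorescence for expression and streptavidin fluorescence for reagent binding. Before sorting, galactose-induced (36–48 hours) yeast display cells were stained for 1 hour at 4 °C with 10% biotinylated, detergent-solubilized Sf9 membrane reagent.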
With “QVQLVESGGGLVQAGGSLRLSCAASGRTFYYYAMGWYRQAPGKERELVAGISWSAGSTYYADSVKGRFTISRDNAKNTVYLQMNSLKPEDTAVYYCAARYWQSYRSQVTHSSTLDYWGQGTQVTVSS” the “polyreactivity (PSR sort gate)” value was “low polyreactivity”. In the case of “QVQLVESGGGLVQAGGSLRLSCAASGRTFYYYAMGWYRQAPGKERELVARIRSGGSTNYADSVKGRFTISRDNAKNTVYLQMNSLKPEDTAVYYCNSMGAKGYVKGFDYWGQGTQVTVSS”, the “polyreactivity (PSR sort gate)” value is reported as “low polyreactivity”. With “QVQLVESGGGLVQAGGSLRLSCAASGRTFYYYAMGWYRQAPGKERELVATITKSSGSTSYADSVKGRFTISRDNAKNTVYLQMNSLKPEDSAVYSCARRIKWGKFKGWNYPAHNYWGQGTQVTVSS” the “polyreactivity (PSR sort gate)” value was “high polyreactivity”. For “QVQLVESGGGLVQAGGSLRLSCAASGRTFYYYARGWYRQAPGKEREVVASITSGDGTYYADSVQGRFTISRDYAQNTVYLQMNSLKPEATAVYYCAADIFYKFSYYPWYPYRDYYYWGQGTQVTVSS”, the “polyreactivity (PSR sort gate)” value was “low polyreactivity”. With “QVQLVESGGGLVQAGGSLRLSCAASGRTFYYYTMGWYRPAPGKERELVAAISSTGNTYYADSVKGRFTISRDNAKNTVYLQMNSLKPEDTAVYYCAALRYVNLLAQAYEYWGQGTQVTVSS” the “polyreactivity (PSR sort gate)” value was “high polyreactivity”. In the case of “QVQLVESGGGLVQAGGSLRLSCAASGRTFYYYTMGWYRQAPGKEREFVAAIRRSGGNTRYADSVKGRFTISRDNAKNTVYLQMNSLKPEDTAVYYCNAGYGYYYGRILQERDYWGQGTQVTVSS”, the “polyreactivity (PSR sort gate)” value is reported as “high polyreactivity”. With “QVQLVESGGGLVQAGGSLRLSCAASGRTFYYYVMGWYRQAPGKERELVAAINSGGNTNYADSVKGRFTISRDNAKNTVYLQMNSLKPEDTAVYYCAADHYRSFRYFESSSTHDYWGQGTQVNVSS” the “polyreactivity (PSR sort gate)” value was “low polyreactivity”. For “QVQLVESGGGLVQAGGSLRLSCAASGRTGVNAMGWYRQAPGKERELVAAINNGDSTYYADSVKGRFTISRDNAKKTVYLQMNSLNPEDTAVYYCAAGLDEGDYWQESDYWGQGTQVTVSS”, the “polyreactivity (PSR sort gate)” value was “low polyreactivity”. For “QVQLVESGGGLVQAGGSLRLSCAASGRTIASYTMGWYRQAPGKERELVAAISKSGGSTYYADSVKGRFTISRDNAKNTVYLQMNSLKPEDTAVYYCAKRRSGNVRKYDYWGQGTQVTVSS”, the “polyreactivity (PSR sort gate)” value was “high polyreactivity”. For “QVQLVESGGGLVQAGGSLRLSCAASGRTIAYNAMGWYRQAPGKERELVAAISWSGGSTYYADSVKGRFTISRDNAKNTVYLQMNSLKPEDTAVYYCAKRFGQYRYPYDYWGQGTQVTVSS”, the “polyreactivity (PSR sort gate)” value was “high polyreactivity”. For “QVQLVESGGGLVQAGGSLRLSCAASGRTIDHYAMGWYRQAPGKERELVAAISTTGGSTYYADSVKGRFTISRDNAKNTVYLQMNSLKPEDTAVYYCAARQRYFWYTTNYNYWGQGTQVTVSS”, the “polyreactivity (PSR sort gate)” value was “high polyreactivity”. In the case of “QVQLVESGGGLVQAGGSLRLSCAASGRTIDPNAMGWYRQAPGKERELVAAITRTGVRTYYADSVKGRFTISRDNAKNTVYLQMNSLKPEDTAVYYCNRYGARSNDYWGQGNQVTVSS”, the “polyreactivity (PSR sort gate)” value is reported as “low polyreactivity”. With “QVQLVESGGGLVQAGGSLRLSCAASGRTIDSNAMGWYRQAPGKERELVAAISSDGGSTYYADSVKGRFTISRDNAKNTVYLQMNSLKPEDTAVYYCNKDDPVDGPLYFRKYDYWGQGTQVTVSS” the “polyreactivity (PSR sort gate)” value was “low polyreactivity”. For “QVQLVESGGGLVQAGGSLRLSCAASGRTIDYNGMGWYRQAPGKERELVAVISTSGGSTFYADSVKGRFTISRDNAKKTVYLQMNSLKPEDTAVYYCAADFIVAYTLHGSYDYWGQGTQVTVSS”, the “polyreactivity (PSR sort gate)” value was “low polyreactivity”. With “QVQLVESGGGLVQAGGSLRLSCAASGRTIEGYAMGCYRQAPGKERELVAAISRRGGSTYYADSVKGRFTISRDNAKNTVYLQMNSLKPEDTAVYYCAARDGSTGAVRYYYWGQGTQVTVSS” the “polyreactivity (PSR sort gate)” value was “high polyreactivity”. With “QVQLVESGGGLVQAGGSLRLSCAASGRTIEHSAMGWYRQAPGKERELVAAINSSDGGTYYADSVKGRFTISRDNPKNTVYLQMNSLKPEDTAVYYCAAAEFGSVPGYEMDYWGHGTQVTVSS” the “polyreactivity (PSR sort gate)” value was “low polyreactivity”. With “QVQLVESGGGLVQAGGSLRLSCAASGRTIEQYDMGWYRQAPGKDRELVAAISWRGGGTYYADSVKGRFTISRDNAKNTVYLQMNSLKPEDTAVYYCAKKSHTTDEGYDYWGQGTQVTVSS” the “polyreactivity (PSR sort gate)” value was “low polyreactivity”. For “QVQLVESGGGLVQAGGSLRLSCAASGRTIEWYAMGWYRQAPGKEREFVARISGIGGSTYYADSVKGRFTISRDKAENTVYLQMNSLKPEDTAVYYCAAVSYFGYYYWGQGTQVTVSS”, the “polyreactivity (PSR sort gate)” value was “high polyreactivity”. With “QVQLVESGGGLVQAGGSLRLSCAASGRTIEYNAMGWYRQAPGKEREFVAAITYSGGGTYYADSVKGRFTISRDNAKNTVYLQMNSLKPEDTAVYYCARERTRVHKHYYWGQGTQVTVSS” the “polyreactivity (PSR sort gate)” value was “low polyreactivity”. With “QVQLVESGGGLVQAGGSLRLSCAASGRTIGKNAMGWYRQAPGKERELVAAISWRGGSTRYADSVKGRFTISRDNAKNTVYLQMNSLKPEDTAVYYCAVRFLTYWHGSYWYDYWGQGTQVTVSS” the “polyreactivity (PSR sort gate)” value was “high polyreactivity”. For “QVQLVESGGGLVQAGGSLRLSCAASGRTIGPYAMGWYRQAPGKERELVAAISGGGSTNYADSVKGRFTISRDNAKNTVSLQMKSLKPEDTAVYYCNTEYPISGEEEYWGQGTQVTVSS”, the “polyreactivity (PSR sort gate)” value was “low polyreactivity”. For “QVQLVESGGGLVQAGGSLRLSCAASGRTIKYYAMGWYRQAPGKERELVAVITYGGSTDYADSVKGRFTISRDNAKNTVYLQLNSLKPEDTAVYYCAAGFGRHYWGYDSWGQGTQVTVSS”, the “polyreactivity (PSR sort gate)” value was “low polyreactivity”. With “QVQLVESGGGLVQAGGSLRLSCAASGRTILGYTMGWYRQAPGKESEFVAAITFSGDSTYYADSVKGRFTISRDKAKNTVYLQMNSLKPEDTAVYYCAAAIPRFSAGHYDYWGQGTQVTVSS” the “polyreactivity (PSR sort gate)” value was “high polyreactivity”. With “QVQLVESGGGLVQAGGSLRLSCAASGRTINRYAMGCYRHAPGKERELVAAINSVGSTYYADSVKGRFTISRDNAKYTVYLQMNSLKPEDTAVFYCNAVQGSRFGYWGEGTQVTVSS” the “polyreactivity (PSR sort gate)” value was “high polyreactivity”. For “QVQLVESGGGLVQAGGSLRLSCAASGRTIPAYAMGWYRQAPGKERELVAAISWGGGSTYYADSVKGRFTISRDNAKNTVYLQMNSLKPEDTAVYYCAVAGYWFAVAEYDYWGQGTQVTVSS”, the “polyreactivity (PSR sort gate)” value was “low polyreactivity”. With “QVQLVESGGGLVQAGGSLRLSCAASGRTIRLYAMGWYRQAPGQERELVAAITRGGRTNYADSVKGRFTISRDNAKNTVYLQMNSLKPEDTAVYYCAARYVERHTDYYYWGQGTQVTVSS” the “polyreactivity (PSR sort gate)” value was “low polyreactivity”. In the case of “QVQLVESGGGLVQAGGSLRLSCAASGRTIRWNAMGWYRQAPGKERELVAAIDSVDNTYYADSVNGRFTISRDNAKNTVYFQMNSLKPEDTAVYYCARDTYWQVQMDYWGQGTQVTVSS”, the “polyreactivity (PSR sort gate)” value is reported as “low polyreactivity”. In the case of “QVQLVESGGGLVQAGGSLRLSCAASGRTIRWNAMGWYRQAPGKERELVGAIDSVDNTYYADSVKGRFTISRYNAKNTVYLQMNSLKPEDTGVYYCARDPYWQVQMDYWGQGTQVTVSS”, the “polyreactivity (PSR sort gate)” value is reported as “low polyreactivity”. With “QVQLVESGGGLVQAGGSLRLSCAASGRTIRYYAMGWYRQAPGKERELVAAITWSVGSTYYADSVKGRFTISRDNAKNTVYLQMNSLKPEDTAVYYCAARLYQLYYWGQGTQVTVSS” the “polyreactivity (PSR sort gate)” value was “high polyreactivity”. For “QVQLVESGGGLVQAGGSLRLSCAASGRTISYNTMGWYRQARGKERELVARITWGGGSTNYADSVKGSFTISRDNAKNTVYLQMNSLKPEDTAVYYCAREYSSVYWVRHLFYYWGQGTQVTVSS”, the “polyreactivity (PSR sort gate)” value was “low polyreactivity”. For “QVQLVESGGGLVQAGGSLRLSCAASGRTITRYTMGWYRQAPGKERELVAAIRYSGGSTYYADSVKGRFTISRDTAKNTIYLQMNSLKPEDTAVYYCAARSYYYGFLYSYDYWGQGTQVTVSS”, the “polyreactivity (PSR sort gate)” value was “low polyreactivity”. In the case of “QVQLVESGGGLVQAGGSLRLSCAASGRTITYYAMGWYRQAPGKERELVAAITWSGGSTYYADSVKGRFTISRDNAKNTVYLQMNSLKPEDTAVDYCAKEFYYSSGFDYWGQGTQVTVSS”, the “polyreactivity (PSR sort gate)” value is reported as “low polyreactivity”.
